Data taken from US6864224 (BROWN UNIVERSITY RESEARCH FOUNDATION, dated 2005).

Biological target: endogenous Raf-1 of Rat-1 cells (rat (Rat-1 cells), UniProt P11345 1-648)
Assay: co-immunoprecipitation of endogenous proteins with RKIP antiserum
Description: For co-precipitation experiments of endogenous proteins, 2 ×10^7 Rat-1 cells were lysed by sonication in PBS, and the immunoprecipitates were washed 4 times with PBS.

B1: endogenous RKIP of Rat-1 cells (other, rat (Rat-1 cells), UniProt P31044 2-187, looked up)
chain: AADISQWAGPLSLQEVDEPPQHALRVDYGGVTVDELGKVLTPTQVMNRPSSISWDGLDPGKLYTLVLTDPDAPSRKDPKFREWHHFLVVNMKGNDISSGTVLSEYVGSGPPKDTGLHRYVWLVYEQEQPLNCDEPILSNKSGDNRGKFKVESFRKKYHLGAPVAGTCFQAEWDDSVPKLHDQLAGK
notes: Endogenous protein in cell lysates
B1: binds.
